Source: paper PMC3323580

Tests used:
Test in all cases: SPR; C3b (1620 RU), C4b (1518 RU) and C1q (2125 RU) amine-coupled on three flow cells of one CM5 chip; CR1 fragments flowed at 30 µl/min, Biacore T100, 25°C, HBS-EP pH 7.4 (10 mM Hepes, 150 mM saline, 3 mM EDTA, 0.05% polysorbate 20); steady-state fit, one-to-one model; duplicates
[1] = biological target: C3b, complement-activation fragment of C3
[2] = biological target: C4b, complement-activation fragment of C4
[3] = biological target: C1q, classical complement pathway protein (UniProt P02745)
Chain of C1q, classical complement pathway protein (P02745 23-245, chain 1 of 3): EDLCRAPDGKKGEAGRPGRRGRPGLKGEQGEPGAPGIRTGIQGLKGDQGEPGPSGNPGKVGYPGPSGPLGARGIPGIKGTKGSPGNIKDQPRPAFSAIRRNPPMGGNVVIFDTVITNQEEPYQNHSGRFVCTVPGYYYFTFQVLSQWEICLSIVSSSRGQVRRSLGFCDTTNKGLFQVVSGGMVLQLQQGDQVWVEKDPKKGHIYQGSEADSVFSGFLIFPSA
Chain of C1q, classical complement pathway protein (P02746 28-253, chain 2 of 3, further chain): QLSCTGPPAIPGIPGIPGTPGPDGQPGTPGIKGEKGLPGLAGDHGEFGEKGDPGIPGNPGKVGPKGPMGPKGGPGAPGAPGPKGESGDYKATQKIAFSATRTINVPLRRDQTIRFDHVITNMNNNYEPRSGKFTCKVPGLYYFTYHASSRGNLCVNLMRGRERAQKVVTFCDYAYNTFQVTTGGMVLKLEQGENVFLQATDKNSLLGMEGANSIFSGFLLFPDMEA
Chain of C1q, classical complement pathway protein (P02747 29-245, chain 3 of 3, further chain): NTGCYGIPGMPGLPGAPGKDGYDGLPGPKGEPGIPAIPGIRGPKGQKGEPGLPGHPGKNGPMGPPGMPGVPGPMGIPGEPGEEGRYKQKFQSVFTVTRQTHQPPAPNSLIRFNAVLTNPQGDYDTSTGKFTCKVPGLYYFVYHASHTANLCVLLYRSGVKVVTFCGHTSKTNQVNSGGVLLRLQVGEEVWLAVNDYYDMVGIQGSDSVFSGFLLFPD

| Substance | Kd [1] [µM] | Kd [2] [µM] | Kd [3] [µM] |
| --- | --- | --- | --- |
| CR1 1–3 (site 1), complement receptor-type 1 CCPs 1–3 (domain or fragment) | 38 | 11.2 | 30.9 |
| CR1 15–25(ER), complement receptor-type 1 CCPs 15–25, Glu1590/Arg1601 variant (domain or fragment) | 1.09 | 5.3 | 5.7 |
| CR1 15–25(KR), complement receptor-type 1 CCPs 15–25, Lys1590/Arg1601 variant (domain or fragment) | 0.99 | 5.1 | 5.7 |

Second part, the substance after the results:

| Kd [1] [µM] | Kd [2] [µM] | Kd [3] [µM] | Substance |
| --- | --- | --- | --- |
| 1.06 | 3.2 | 0.82 | CR1 15–17 (site 2), complement receptor-type 1 CCPs 15–17 (domain or fragment) |
| 0.8 | 5 | 5.1 | CR1 15–25(EG), complement receptor-type 1 CCPs 15–25, Glu1590/Gly1601 variant (domain or fragment) |
| 1.05 | 5.2 | 5.5 | CR1 15–25(KG), complement receptor-type 1 CCPs 15–25, Lys1590/Gly1601 variant (domain or fragment) |
| 0.53 | 0.91 |  | soluble CR1 (sCR1), full-length ectodomain of complement receptor-type 1 (from UniProt P17927 42-1971) |
